Substrate: NC(=O)[C@@H]1CCCN1C(=O)[C@H](Cc1cnc[nH]1)NC(=O)[C@@H]1CCC(=O)N1
Experiment: RP-HPLC cleavage assay with purified rhPOP, Michaelis-Menten fit (Km)
Type: biochemical, Homo sapiens
Conditions: occupies the S3-S1' sub-pockets

B1: Prolyl Oligopeptidase (POP) (Homo sapiens) (protein)
chain: MLSLQYPDVYRDETAVQDYHGHKICDPYAWLEDPDSEQTKAFVEAQNKITVPFLEQCPIRGLYKERMTELYDYPKYSCHFKKGKRYFYFYNTGLQNQRVLYVQDSLEGEARVFLDPNILSDDGTVALRGYAFSEDGEYFAYGLSASGSDWVTIKFMKVDGAKELPDVLERVKFSCMAWTHDGKGMFYNSYPQQDGKSDGTETSTNLHQKLYYHVLGTDQSEDILCAEFPDEPKWMGGAELSDDGRYVLLSIREGCDPVNRLWYCDLQQESSGIAGILKWVKLIDNFEGEYDYVTNEGTVFTFKTNRQSPNYRVINIDFRDPEESKWKVLVPEHEKDVLEWIACVRSNFLVLCYLHDVKNILQLHDLTTGALLKTFPLDVGSIVGYSGQKKDTEIFYQFTSFLSPGIIYHCDLTKEELEPRVFREVTVKGIDASDYQTVQIFYPSKDGTKIPMFIVHKKGIKLDGSHPAFLYGYGGFNISITPNYSVSRLIFVRHMGGILAVANIRGGGEYGETWHKGGILANKQNCFDDFQCAAEYLIKEGYTSPKRLTINGGSNGGLLVAACANQRPDLFGCVIAQVGVMDMLKFHKYTIGHAWTTDYGCSDSKQHFEWLVKYSPLHNVKLPEADDIQYPSMLLLTADHDDRVVPLHSLKFIATLQYIVGRSRKQSNPLLIHVDTKAGHGAGKPTAKVIEEVSDMFAFIARCLNVDWIP
notes: recombinant human POP (rhPOP), GST moiety removed
Km: 690 µM

Reference: publication PMC7112232, “Computational design of substrate selective inhibition” (PLoS Computational Biology, 2020)
